# Measured values published in paper PMC13342644, “Structural basis for transport and inhibition of nucleotide sugar transport in pathogenic fungi” (Nature Communications, 2026).
# “Also recorded” adds a separate entry of the source.
# Legend:
# [1] = test system: yeast strain NDY5 overexpressing C. albicans Vrg4; assay: Hygromycin B-based in vivo viability (growth) assay; type: cell-based, Saccharomyces cerevisiae; details: NDY5 + C. albicans Vrg4, in the presence of hygromycin B
# Experimental: The yeast was grown in minimal media to select for the plasmids, and the expression of the nanobody was induced with galactose. After overnight galactose induction, the yeast culture was diluted, and growth was monitored over 30 h.
# An overnight culture was grown in minus -Leu-Ura medium containing 2% glucose and then diluted 1:10 into medium containing 2% lactate. After 9 h of growth, 2% galactose was added, and the cultures were left overnight. […] The cultures were grown at 30 °C with shaking, and growth was monitored over the next 30 h by measuring the OD.
# [2] = test system: C. auris Vrg4; assay: Liposome 3H-GMP transport assay in the presence of nanobodies (specificity control); type: biochemical; details: Vrg4 from Candida auris
# Experimental: (§1) CaVrg4 was reconstituted into liposomes using the dilution method into preformed lipid vesicles. Chloroform was removed from the lipids using a rotary evaporator to obtain a thin film. The lipids were washed twice in pentane and then resuspended at 10–20 mg ml^−1 in lipid buffer (20 mM HEPES, pH 7.5, 100 mM KCl). These lipid vesicles were frozen and thawed twice in liquid nitrogen, then stored at −80 °C until use. For reconstitution, the lipids were thawed and then extruded first through a 0.8-μm filter and then through a 0.4-μm filter. […] After this time, the protein–lipid mix was diluted rapidly into 65 mL of assay buffer (20 mM HEPES, pH 7.5, 50 mM KCl, 2 mM MgSO4) and the proteoliposomes were collected through centrifugation at >200,000 x g for 2 h. To remove trace detergent, the proteoliposomes were dialysed overnight against a large volume (3 L) of assay buffer. After dialysis, the proteoliposomes were collected and resuspended in assay buffer to a final protein concentration of 0.5 μg μl^−1, and then subjected to two rounds of freeze–thawing in liquid nitrogen before storage at −80 °C. The amount of protein reconstituted into the lipids was quantified by SDS–PAGE and densitometry. […] The final buffer was PBS. For all the assays, the lipid mix consisted of POPE:POPG:Ecoli Polar lipid Extract:EggPC in a 27:7:9:1 ratio.
# (§2) All assays were performed at 30 °C.
# [3] = target: T1, C. albicans Vrg4 (CaVrg4) (Candida albicans, UniProt Q5A477); assay: Liposome 3H-GMP transport assay in the presence of nanobodies; type: biochemical
# T1 sequence (Q5A477 34-371 limits assumed): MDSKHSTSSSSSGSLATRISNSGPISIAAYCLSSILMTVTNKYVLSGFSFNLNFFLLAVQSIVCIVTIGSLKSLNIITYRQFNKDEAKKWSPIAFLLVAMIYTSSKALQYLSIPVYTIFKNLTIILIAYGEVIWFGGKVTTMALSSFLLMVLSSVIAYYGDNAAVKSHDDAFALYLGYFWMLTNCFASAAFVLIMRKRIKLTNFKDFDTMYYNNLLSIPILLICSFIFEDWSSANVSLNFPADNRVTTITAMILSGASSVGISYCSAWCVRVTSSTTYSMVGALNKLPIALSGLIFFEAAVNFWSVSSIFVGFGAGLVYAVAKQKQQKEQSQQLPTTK
# Experimental: as §1, §2
# [4] = test system: S. cerevisiae Vrg4; assay: Liposome 3H-GMP transport assay in the presence of nanobodies (specificity control); type: biochemical, Saccharomyces cerevisiae; details: Vrg4 from S. cerevisiae
Molecule,"Growth / sensitivity to hygromycin B, in words [1]","Detectable inhibition, in words [2]","Effect on transport function (uptake of 3H GMP into liposomes), in words [3]","Detectable inhibition, in words [4]"
"NB4: inhibitory nanobody specific for C. albicans Vrg4, stabilises the cytoplasmic-facing state (antibody, V domains shown) VH: QVQLVESGGGLVQAGGSLRLSCAASGRTFRSYTLGWFRQAPGKEREFVAAIKWSTDTTYYADSVKGRFTISGDNAKNTVYLQMNSLKPEDTAVYFCAARSLSTVIAGPEIPWPYNSWGQGTQVTVSS",sensitivity of this strain to HyB manifests; also recorded: slow growth phenotype,neither NB3 nor NB4 showed any detectable inhibition,full inhibition,neither NB3 nor NB4 showed any detectable inhibition
"NB3: inhibitory nanobody specific for C. albicans Vrg4, stabilises the Golgi-facing state (antibody, V domains shown) VH: QVQLVESGGGLVQPGGSLRLSCAASGSISEINVMGWYRQAPGKQRELVARITTGGSTNYADSVKGRFTISRDNAKNTVYLQMNSLKPEDTAVYMCNAHRRVVMEWGPLGYDYWGQGTQVTVSS",sensitivity of this strain to HyB manifests; also recorded: slow growth phenotype,neither NB3 nor NB4 showed any detectable inhibition,full inhibition,neither NB3 nor NB4 showed any detectable inhibition
